Data taken from patent publication US20230331868A1.
Numbering of substitutions follows the chain as printed. Blank lines part the entries; values can stand above or below the binder they belong to.

Assays:
[1] = molecular target: bovine submaxillary mucin (bovine); assay: ELISA on BSM-coated wells; antibody from one liter production
[2] = molecular target: bovine submaxillary mucin (bovine); assay: ELISA on BSM-coated wells; periodate-sensitive signal

EC50 [1]: 0.8 nM
EC50 [2]: 4.2 nM
B1: Humanized 2G12-2B2 VL0,VH3 (antibody, V domains shown)
VH: EVQLVQSGAEVKKPGASVKVSCKASGYTFTDHAIHWVRQAPGQGLEWMGYFSPGNDDIKYNEKFRGRVTMTADKSSSTAYMELRSLRSDDTAVYFCKRSLSTPYWGQGTLVTVSS
VL: DIVMTQSPDSLAVSLGERATINCKSSQSLLNRGNHKNYLTWYQQKPGQPPKLLIYWASTRESGVPDRFSGSGSGTDFTLTISSLQAEDVAVYYCQNDYTYPYTFGQGTKVEIK

EC50 [2]: 1.8 nM
B2: Humanized 2G12-2B2 VL0,VH2 (antibody, V domains shown)
VH: B1 VH with E1Q, V20I, M48I, M70L
VL: B1 VL

EC50 [2]: 4.4 nM
B3: Humanized 2G12-2B2 VL2,VH1 (antibody, V domains shown)
VH: B1 VH with E1Q
VL: B1 VL with A19V, I21M, N22S

EC50 [2]: 4.5 nM
B4: Humanized 2G12-2B2 VL0,VH1 (antibody, V domains shown)
VH: B1 VH with E1Q
VL: B1 VL

EC50 [1]: 0.57 nM
EC50 [2]: 1.4 nM
B5: Humanized 3F1 VL1,VH2 (antibody, V domains shown)
VH: QVQLVQSGAEVKKPGASVKISCKASGYTFTDHAIHWVRQAPGQGLEWIGYISPGNGDIKYNEKFKDRVTLTADKSSSTASMHLRSLRSDDTAVYFCKRSLLALDYWGQGTLVTVSS
VL: DIQMTQSPSSLSASVGDRVTITCKASQDVGTNIAWYQQKPGKAPKVLIYSASTRHTGVPSRFSGSGSGTDFTLTISSLQPEDFATYFCQQYSSFPLTFGQGTKVEIK

EC50 [2]: 12.2 nM
B6: Humanized 3F1 VL1,VH3 (antibody, V domains shown)
VH: B5 VH with Q1E, I20V, I48M, N55S, L70M, S80Y, H82Q
VL: B5 VL

EC50 [2]: 6.5 nM
B7: Humanized 3F1 VL1,VH4 (antibody, V domains shown)
VH: B5 VH with Q1E, N55S
VL: B5 VL
